In the Human Domainome abundance scans (Beltran et al. 2025):

B1: GA-binding protein alpha chain, residues 172 to 250; numbered along this chain, Q06546 (parent)
chain: GYRKEQERLGIPYDPIQWSTDQVLHWVVWVMKEFSMTDIDLTTLNISGRELCSLNQEDFFQRVPRGEILWSHLELLRKY

Variants of: B1
Experiment: abundance fitness (aPCA) (normalised: wild type 0, dead -1); higher = more abundant; growth selection in yeast, the domain comes from the species named
Conditions: Homo sapiens

Abundance fitness of substitutions, site by site:
L24: T -0.056 | Y -0.278
K32: L -0.443 | R -0.024 | N -0.024 | A -0.141 | M -0.261 | F -0.41 | E -0.024 | C -0.188 | Y -0.172 | I -0.582 | Q -0.061 | T -0.01 | S -0.079 | W -0.419 | V -0.36 | P -0.734
T37: N -0.027 | C -0.044 | K 0.039 | R -0.033 | P 0.014 | Q -0.009 | G -0.004 | M -0.028 | A -0.03 | V -0.1 | D -0.22 | I -0.256 | H -0.037 | E 0.017 | W -0.115 | F -0.019 | S -0.07
T42: R -0.014 | N -0.083 | S -0.011 | Y -0.1 | C -0.051 | K -0.131 | F -0.215 | I -0.181 | L -0.162 | V -0.122 | D -0.011 | Q -0.032 | A -0.004 | P -0.106 | H -0.075
E33: D 0.021 | G -0.196 | A -0.139 | M -0.337 | V -0.277 | C -0.276 | K -0.008 | Q -0.123 | R -0.031 | N -0.202 | Y -0.257 | F -0.375 | P -0.26 | I -0.767 | H -0.092 | S -0.1 | T -0.084 | W -0.566
V28: K 0.085 | A -0.004 | D 0.017 | W -0.043 | I -0.017 | S -0.035 | C 0.039 | G -0.023 | N -0.1 | F -0.129 | H -0.013 | E -0.039 | Q 0.027 | P -0.921 | M 0.016 | R 0.043
T43: S 0.014 | R -0.027 | A 0 | P 0.013 | D 0.034 | I -0.202 | M -0.043 | V -0.065 | N -0.037 | W -0.123 | Q -0.016 | C 0.013 | Y -0.005 | K 0.102 | H -0.149 | F -0.299
H25: G -0.207 | D -0.209 | P -0.942 | T -0.12 | N -0.048 | M -0.303 | S -0.27 | F -0.194 | R -0.304 | C -0.266 | Y -0.002 | Q -0.304 | A -0.25 | W -0.393 | L -0.167 | V -0.219 | I -0.138
L44: A -0.715 | K -0.862 | M -0.019 | F -0.108 | Q -1.09 | H -0.825 | C -0.282 | G -0.711 | D -0.945 | P -0.865 | S -0.745 | E -0.876 | V -0.193 | R -0.989
W29: K -0.816 | R -0.9 | S -0.439 | H -0.404 | D -0.57 | A -0.632 | F -0.279 | T -0.452 | Q -0.724 | L -0.815 | G -0.776 | Y -0.106 | C -0.663 | E -0.701 | V -0.939 | I -1.09
I39: V 0.037 | A -0.192 | H -0.06 | Q -0.22 | P -0.17 | W -0.145 | D -0.288 | G -0.185 | N -0.07 | M -0.021 | S -0.275 | R -0.281 | T -0.035 | K -0.244 | E -0.118 | C -0.042 | Y -0.317 | F -0.011
V27: Y -0.197 | R -0.436
